Tests used:
[1] = molecular target: Porcine circovirus type 2 (PCV2) virus particles (capsid of Cap) (porcine circovirus type 2 (genotype 2d, strain ChenZ-2-1))
[2] = molecular target: PCV2 virus-like particles (VLPs) assembled from the capsid protein (Cap) (porcine circovirus type 2 (genotype 2d, strain ChenZ-2-1))
[3] = molecular target: Annexin A2 (endogenous, PK-15 cells) (pig (endogenous in PK-15)) (UniProt P19620)
[4] = molecular target: Annexin A2 (endogenous, PK-15 cells) (pig (endogenous in PK-15)) (UniProt P19620); remark: listed apart in the source

UniProt P19620, sequence (P19620 whole entry): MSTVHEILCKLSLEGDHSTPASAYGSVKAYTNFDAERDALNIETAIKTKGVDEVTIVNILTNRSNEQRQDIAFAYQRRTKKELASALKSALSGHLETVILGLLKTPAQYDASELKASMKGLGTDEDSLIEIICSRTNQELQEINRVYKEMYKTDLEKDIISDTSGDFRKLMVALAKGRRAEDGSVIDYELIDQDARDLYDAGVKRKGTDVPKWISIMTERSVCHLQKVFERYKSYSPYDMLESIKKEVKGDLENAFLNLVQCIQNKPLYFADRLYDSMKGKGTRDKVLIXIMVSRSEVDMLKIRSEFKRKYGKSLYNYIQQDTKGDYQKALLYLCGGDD

| Substance | inhibition of PCV2 attachment to PK-15 cells at 4 °C (bound virus by qPCR) after preincubation of PCV2 with rANXA2 (20 μg/mL); blocks PCV2 and cell surface ANXA2 [1] [%] | decrease of PCV2 VLP binding to PK-15 cells at 4 °C (immunofluorescence with anti-Cap antibody, fluorescence intensity) after preincubation of VLPs with rANXA2 (20 μg/mL) [2] [%] | decrease in PCV2 infectivity by IFA (Cap fluorescence) in PK-15 cells pretreated with ANXA2-specific polyclonal antibody, against control cells [3] [%] | reduction of viral genome copies in PK-15 cells at 36 hpi (qPCR) after pretreatment of the cells with anti-ANXA2 polyclonal antibody at 10 and 30 μg/mL [3] [%] | reduction of PCV2 particles attached to PK-15 cells at 4 °C (qPCR) after pretreatment of the cells with ANXA2-specific antibody (30 μg/mL) [4] [%] |
| --- | --- | --- | --- | --- | --- |
| recombinant soluble full-length porcine ANXA2 with an N-terminal His-tag (pET-28a(+)) (from UniProt P19620 1-339) (natural protein) | 32.7 | 19.4 |  |  |  |
| Porcine circovirus type 2 (PCV2) virus particles (capsid of Cap) (complex) |  |  | 30 | 42.7 | 25.2 |

— article PMC12512739
